The nature of data set [1]: Pharmacokinetic experiment in mice, plasma and brain, LC-MS/MS. It counts as in vivo, C57Bl/6J mice. The method, then:
In a pharmacokinetic experiment in C57Bl/6J mice (3 animals per timepoint; schedule shown below) two example compounds, Cy1 (4-HO-EPT glycoside) and Cy2 (4-HO-DMT glycoside) were dosed at two different concentrations (20 mg/kg dose shown here) and the parent compounds and their de-glycosylated forms, 4-HO-EPT and psilocin (4-HO-DMT), respectively, were measured by LC-MS/MS in plasma and brain tissue samples. For comparison, psilocybin was dosed at 1.5 mg/kg orally and plasma and brain tissue concentrations of psilocin (4-HO-DMT) were measured. Samples were collected at four or five different timepoints (from 10-minutes post dosing up to 6-hours post dosing) following the test article administration.
Schedule of pharmacokinetic experiment shown below.
Results are reported in ng/mL for the concentration in plasma and in ng/g tissue for the concentration measured in brain samples.
Results: The graphs in FIG. 35, FIG. 36, FIG. 37, and FIG. 38 display the time course of concentrations of compounds as indicated. For each time point the data for the individual animals are plotted.

Data set [2] in a line: Glycosylation of 4-OH-MiPT by GLY enzymes (UDP-glucose), LC-UV/MS. Format: biochemical. To be noted: conditions of Examples 1 and 2 repeated for 4-OH-MiPT; estimate from UV peak areas. The method, then: (§1) The assay conditions were: • 100 mM Tris-HCl, pH 7.4 • 5 mM MgCl2 • 1 mM KCl • 1.25 mM UDP-glucose • 0.5 mM 4-OH-MET • 5% (v/v) DMSO • 0.1 U/uL Fast AP phosphatase • 25% (v/v) GLY enzyme
(§2) Incubation was 24 house at 30° C. Reactions were terminated adding 3 volumes of 75% (v/v) ethanol.
(§3) LC separation was performed using an Agligen 1290 Infinity II UHPLC equipped with a Phenomenex Kinetex XB-C18 column (1.7 um, 100 angstroms, 100×2.1 mm) and 4-HO-MET was detected by absorbance at 210 nm and 268 nm with an Agilent 1260 Infinity II DAD.
(§4) 0.1% Formic acid in water (A) and 0.1% Formic acid in acetonitrile (B) were used as the mobile phases for the elution gradient, with a flow rate of 0.4 ml/min. Retention time for 4-HO-MET using this type of instrument under these condition was 2.6 min. The system was coupled to an Ultivo Triple Quadrupole MS. To verify the presence of possible glycoside products, as SIM (Selected Ion Monitoring) method was used on the MS to analyse for the m/z 381 (theoretical mass to chart ratio of 4-HO-MET-glucoside) and m/z 219 (theoretical mass to charge ratio of 4-HO-MET).
(§5) The enzymes giving the additional peak putatively corresponding to the 4-HO-MET-β-D-glucoside are listed below. […] A correct quantification of the product is not possible without a standard for the specific molecule. However, based on the assumption that the ratio area-to-concentration in the UV chromatograms will be similar to 4-HO-MET, estimates of the relative abundance for the additional peak are also given, expressed as percentage of converted 4-HO-MET. GLY enzymes hits are ranked according to their estimated conversion efficiency.
(§6) The experiments described in Examples 1 and 2 above were repeated for 4-OH-MiPT, 4-HO-DMT and 5-HO-DMT
Below is the corresponding data for 4-OH-MiPT.

A short description of data set [3]: Glycosylation of 4-HO-MET by GLY enzymes (UDP-glucose), LC-UV/MS. Format: biochemical. To be noted: 0.5 mM 4-OH-MET, 1.25 mM UDP-glucose, 25% (v/v) GLY enzyme, 24 h at 30° C.; estimate from UV peak areas. The method, then: 4-HO-MET was dissolved in 100% (v/v) DMSO to a concentration of 10 mM. The solution was stored at −20° C. prior to use.
FastAP phosphatase (1 U/uL) from ThermoFisher Scientific (catalog no. EF0651).
GLY enzyme suspensions contain 10 mM Tris-HCl at pH7.4, 250 mM imidazole and 50% (v/v) glycerol.
as §1, §2, §3, §4
As standard, 4-HO-MET solutions at a concentrations of 500, 250, 125, 62.5, and 31.25 uM were prepared from the 10 mM stock and used for caliboration.
A representative example of the chromatograms obtained with a wavelength of 268 nm for the standard solutions resuspended in the reaction buffer, and the corresponding MS-SIM signal, is shown in FIG. 16. The peak corresponding to 4-HO-MET is indicated.
When analyzing the GLY reactions, 30 of them gave an additional peak with retention time 2.2 min (i.e. in the expected region for a 4-HO-MET glucoside) and molecular mass compatible with the expected glucoside product, together with a corresponding decrease in substrate concentration, compared to the no-enzyme controls.
The method was repeated using various GLY enzymes to produce 4-HO-MET glucosides.
as §5

A short description of data set [4]: Glycosylation of 4-OH-EPT by GLY enzymes (UDP-glucose), LC-UV/MS. The note with it: conditions of Examples 1 and 2 repeated for 4-OH-EPT; estimate from UV peak areas. It counts as biochemical. The method, then:
as §1, §2, §3, §4, §5
The experiments described in Examples 1 and 2 above were repeated for 4-OH-EPT.
Below is the corresponding data for 4-OH-EPT.

Data set [5] is described as follows: Glycosylation of 4-OH-DMT by GLY enzymes (UDP-glucose), LC-UV/MS. It counts as biochemical. The note with it: conditions of Examples 1 and 2 repeated for 4-HO-DMT; estimate from UV peak areas. The method, then:
as §1, §2, §3, §4, §5, §6
(§7) Below is the corresponding data for 4-OH-DMT and 5-HO-DMT.

Data set [6] in a line: Glycosylation of 5-HO-DMT by GLY enzymes (UDP-glucose), LC-UV/MS. Format: biochemical. To be noted: conditions of Examples 1 and 2 repeated for 5-HO-DMT. The method, then:
as §1, §2, §3, §4, §5, §6, §7

These results are taken from patent US20260060994A1, “GLYCOSYLATED COMPOSITIONS AND METHODS OF USE” (Cy Biopharma AG, priority 2023, published 2026).

Regarding `CCCN(CC)CCc1c[nH]c2cccc(O[C@@H]3O[C@H](CO)[C@@H](O)[C@H](O)[C@H]3O)c12` [Cy1, 4-HO-EPT glycoside], the “period of exposure in brain” value in data set [1] (higher doses (20 mg/kg p.o.), brain, as compared to psilocybin 1.5 mg/kg p.o.) was “extended period of exposure”. Moreover, the “period of exposure in plasma” value in data set [1] (higher doses (20 mg/kg p.o.), plasma, as compared to psilocybin 1.5 mg/kg p.o.) is “extended period of exposure”. Moreover, the “time to peak brain concentration” value in data set [1] (p.o. single dose, brain, as compared to the administration of psilocybin 1.5 mg/kg p.o.) is listed as “extended”. Further, in data set [1] (p.o. single dose, plasma, as compared to the administration of psilocybin 1.5 mg/kg p.o.), the “time to peak plasma concentration” value is “extended”.

B1: GLY163: glycosyltransferase (UGT), SEQ ID NO: 22 (protein)
chain: MTGELIFIPMPSLSHIASTMEIAKLLVHRDDRLSITVLLISSQYTTSITTYINSLIASSDYDRIRFIHLPELDSEEEPKRPFMSVIDDNKPIVKEAVTNLALSFDPSHRLAGFVIDMFCVGMIEVADELGLPSYPFFTSSTSFLALQFHVQTLADEEEVDITEFKNSDVMLPIPGLVNPLPAKTILPSAMLNKDWLPYVLNGARGFRKTKGIMVNSFAEIESNAVTSLSNSTVPPVYTVGPIINFKGDGQDSDTCTAHKYSNIMTWLDDQPPSSVLFLCFGSLGSFDEEQVKEIARALEGSGHRFLWSLRRPPPKDKTMSFPTEYENFEEVLPEGFVDRTVGMGKVMGWAPQVAVLAHPSIGGFVTHCGWNSILESVWFGVPMAAWPLYAEQQFNAFHMVVELGLAVEIKMDYRKDYAILGLQEERVSAEVIEKGIRCLMEEDNDARKKVKEMSEISRKALMDGGSSHAVLGQFIEDVMNNISA
Take B1: the “4-OH-MiPT GLY % (percentage of converted 4-OH-MiPT)” value in data set [2] is 61.6%. Moreover, the “4-OH-MET GLY % (percentage of converted 4-HO-MET)” value in data set [3] is reported as 40.5%. Further, in data set [4], the “4-OH-EPT GLY % (percentage of converted 4-OH-EPT)” value is 46.3%. In data set [5], the “4-OH-DMT GLY %” value is listed as 10.6%.

B2: GLY91: glycosyltransferase (UGT), SEQ ID NO: 12 (protein)
chain: MGKQEDAELVIIPFPFSGHILATIELAKRLISQDNPRIHTITILYWGLPFIPQADTIAFLRSLVKNEPRIRLVTLPEVQDPPPMELFVEFAESYILEYVKKMVPIIREALSTLLSSRDESGSVRVAGLVLDFFCVPMIDVGNEFNLPSYIFLTCSAGFLGMMKYLPERHREIKSEFNRSFNEELNLIPGYVNSVPTKVLPSGLFMKETYEPWVELAERFPEAKGILVNSYTALEPNGFKYFDRCPDNYPTIYPIGPILCSNDRPNLDLSERDRILKWLDDQPESSVVFLCFGSLKSLAASQIKEIAQALELVGIRFLWSIRTDPKEYASPNEILPDGFMNRVMGLGLVCGWAPQVEILAHKAIGGFVSHCGWNSILESLRFGVPIATWPMYAEQQLNAFTIVKELGLALEMRLDYVSEYGEIVKADEIAGAVRSLMDGEDVPRRKLKEIAEAGKEAVMDGGSSFVAVKRFIDGL
Turning to B2, the “4-OH-MET GLY % (percentage of converted 4-HO-MET)” value in data set [3] is recorded as 20.7%. The “4-OH-EPT GLY % (percentage of converted 4-OH-EPT)” value in data set [4] is given as 5.4%. Moreover, in data set [6], the “5-OH-DMT GLY %” value came out at 1%.

B3: GLY153: glycosyltransferase (UGT), SEQ ID NO: 20 (protein)
chain: MAETDSPPHVAILPSPGMGHLIPLVELAKRLVHQHNLSVTFIIPTDGSPSKAQRSVLGSLPSTIHSVFLPPVNLSDLPEDVKIETLISLTVARSLPSLRDVLSSLVASGTRVVALVVDLFGTDAFDVAREFKASPYIFYPAPAMALSLFFYLPKLDEMVSCEYSEMQEPVEIPGCLPIHGGELLDPTRDRKNDAYKWLLHHSKRYRLAEGVMVNSFIDLERGALKALQEVEPGKPPVYPVGPLVNMDSNTSGVEGSECLKWLDDQPLGSVLFVSFGSGGTLSFDQITELALGLEMSEQRFLWVARVPNDKVANATYFSVDNHKDPFDFLPKGFLDRTKGRGLVVPSWAPQAQVLSHGSTGGFLTHCGWNSTLESVVNAVPLIVWPLYAEQKMNAWMLTKDVEVALRPKASENGLIGREEIANIVRGLMEGEEGKRVRNRMKDLKDAAAEVLSEAGSSTKALSEVARKWKNHKCTQDCN
Turning to B3, in data set [3], the “4-OH-MET GLY % (percentage of converted 4-HO-MET)” value is listed as 6%. Also, the “5-OH-DMT GLY %” value in data set [6] is given as 5%.

B4: GLY74: glycosyltransferase (UGT), SEQ ID NO: 6 (protein)
chain: MRNVELIFIPTPTVGHLVPFLEFARRLIEQDDRIRITILLMKLQGQSHLDTYVKSIASSQPFVRFIDVPELEEKPTLGSTQSVEAYVYDVIERNIPLVRNIVMDILTSLALDGVKVKGLVVDFFCLPMIDVAKDISLPFYVFLTTNSGFLAMMQYLADRHSRDTSVFVRNSEEMLSIPGFVNPVPANVLPSALFVEDGYDAYVKLAILFTKANGILVNSSFDIEPYSVNHFLQEQNYPSVYAVGPIFDLKAQPHPEQDLTRRDELMKWLDDQPEASVVFLCFGSMARLRGSLVKEIAHGLELCQYRFLWSLRKEEVTKDDLPEGFLDRVDGRGMICGWSPQVEILAHKAVGGFVSHCGWNSIVESLWFGVPIVTWPMYAEQQLNAFLMVKELKLAVELKLDYRVHSDEIVNANEIETAIRYVMDTDNNVVRKRVMDISQMIQRATKNGGSSFAAIEKFIYDVIGIKP
B4: in data set [2], the “4-OH-MiPT GLY % (percentage of converted 4-OH-MiPT)” value is recorded as 19.3%. Moreover, the “4-OH-MET GLY % (percentage of converted 4-HO-MET)” value in data set [3] is recorded as 36%. Besides, the “4-OH-EPT GLY % (percentage of converted 4-OH-EPT)” value in data set [4] was 7%. The “4-OH-DMT GLY %” value in data set [5] is listed as 22.4%.

B5: GLY170: glycosyltransferase (UGT), SEQ ID NO: 28 (protein)
chain: MKKINLVVIPFAGVGHLVSTIEFIKRLLSRDDRFSVTILVIKSPLEHSLDPNTSPPSLPSSHPHIQFINVRSLNPPPIEVFLKSPEKYFTLYIESYKLKVKEIIVDHVLPNSAPLGGLFLDMFSTSMVDVAQELGVPSYVFLTSGAGFLGFVLYLQTRHDRGGAEFELSDIESYIPSYVNPVPSRVLPSLAFNREGGYVSFVNVARNMKKTKGIIVNTVFELESHAISSLLMDGATPPVYAVGPLIDHKGESHFRTDQAKRDKIIKWLDDQPTKSVIFLCFGSFGSFGVPQLREIAIGLEQSGARFLWSIRQAKSIFEMPIECEKPEEFLPQGFLDRTKELGMICGWTPQIEVLAHRAIGGFVSHCGWNSILESLWHGVPIVTWPLYAEQQINAFQIVKDLGLGVELRLDYRRDGGDVDVVMRDEIEKAVRYVMDGDSEVRQRVQEASEKCRKAVVEGGSSFSSIGSLIEAILANIS
Regarding B5, the “4-OH-MiPT GLY % (percentage of converted 4-OH-MiPT)” value in data set [2] was 38.8%. Besides, in data set [3], the “4-OH-MET GLY % (percentage of converted 4-HO-MET)” value is recorded as 31.6%. In addition, the “4-OH-EPT GLY % (percentage of converted 4-OH-EPT)” value in data set [4] is listed as 23.4%. Also, the “4-OH-DMT GLY %” value in data set [5] was 15.7%.
